Here are results for 22 molecules from patent US11499162B2, “Plants having increased tolerance to herbicides” (BASF SE, priority 2016, dated 2022).

B1: Q71S: mutated TriA variant of SEQ ID NO: 2 (protein)
chain: MQTLSIQHGTLVTMDQYRRVLGDSWVHVQDGRIVALGVHAESVPPPADRVIDARGKVVLPGFINAHTHVNSILLRGGPSHGRQLYDWLFNVLYPGQKAMRPEDVAVAVRLYCAEAVRSGITTINDNADSAIYPGNIEAAMAVYGEVGVRVVYARMFFDRMDGRIQGYVDALKARSPQVELCSIMEETAVAKDRITALSDQYHGTAGGRISVWPAPAITPAVTVEGMRWAQAFARDRAVMWTLHMAESDHDERLHWMSPAEYMECYGLLDERLQVAHCVYFDRKDVRLLHRHNVKVASQVVSNAYLGSGVAPVPEMVERGMAVGIGTDDGNCNDSVNMIGDMKFMAHIHRAVHRDADVLTPEKILEMATIDGARSLGMDHEIGSIETGKRADLILLDLRHPQTTPHHHLAATIVFQAYGNEVDTVLIDGNVVMENRRLSFLPPERELAFLEEAQSRATAILQRANMVANPAWRSL
modifications: Pseudomonas
B2: Q71NL88AL92AD128G: mutated TriA variant of SEQ ID NO: 2 (protein)
chain: B1 chain with S71N, L88A, L92A, D128G
modifications: Pseudomonas
B3: F157S: mutated TriA variant of SEQ ID NO: 2 (protein)
chain: B1 chain with S71Q, F157S
modifications: Pseudomonas
B4: Q71NL92AM155TF157L: mutated TriA variant of SEQ ID NO: 2 (protein)
chain: B1 chain with S71N, L92A, M155T, F157L
modifications: Pseudomonas
B5: Q71NL88AL92AD128A: mutated TriA variant of SEQ ID NO: 2 (protein)
chain: B1 chain with S71N, L88A, L92A, D128A
modifications: Pseudomonas
B6: Q71NL88AL92A: mutated TriA variant of SEQ ID NO: 2 (protein)
chain: B1 chain with S71N, L88A, L92A
modifications: Pseudomonas
B7: Q71NL88AL92AY93L: mutated TriA variant of SEQ ID NO: 2 (protein)
chain: B1 chain with S71N, L88A, L92A, Y93L
modifications: Pseudomonas
B8: Q71NL92AM155VF157L: mutated TriA variant of SEQ ID NO: 2 (protein)
chain: B1 chain with S71N, L92A, M155V, F157L
modifications: Pseudomonas
B9: Q71V: mutated TriA variant of SEQ ID NO: 2 (protein)
chain: B1 chain with S71V
modifications: Pseudomonas
B10: Q71G: mutated TriA variant of SEQ ID NO: 2 (protein)
chain: B1 chain with S71G
modifications: Pseudomonas
B11: Q71NL88AL92AY93F: mutated TriA variant of SEQ ID NO: 2 (protein)
chain: B1 chain with S71N, L88A, L92A, Y93F
modifications: Pseudomonas
B12: Q71NL92AY93FD128GQ96T: mutated TriA variant of SEQ ID NO: 2 (protein)
chain: B1 chain with S71N, L92A, Y93F, Q96T, D128G
modifications: Pseudomonas
B13: Q71NL92AY93L: mutated TriA variant of SEQ ID NO: 2 (protein)
chain: B1 chain with S71N, L92A, Y93L
modifications: Pseudomonas
B14: Q71NL88AL92AY93FF157L: mutated TriA variant of SEQ ID NO: 2 (protein)
chain: B1 chain with S71N, L88A, L92A, Y93F, F157L
modifications: Pseudomonas
B15: Q71NL92AY93F: mutated TriA variant of SEQ ID NO: 2 (protein)
chain: B1 chain with S71N, L92A, Y93F
modifications: Pseudomonas
B16: Q71NL92AD128A: mutated TriA variant of SEQ ID NO: 2 (protein)
chain: B1 chain with S71N, L92A, D128A
modifications: Pseudomonas
B17: Q71NL92AY93FD128G: mutated TriA variant of SEQ ID NO: 2 (protein)
chain: B1 chain with S71N, L92A, Y93F, D128G
modifications: Pseudomonas
B18: Q71NL92AM155TF157V: mutated TriA variant of SEQ ID NO: 2 (protein)
chain: B1 chain with S71N, L92A, M155T, F157V
modifications: Pseudomonas
B19: Q71NL88AL92AY93LI217A: mutated TriA variant of SEQ ID NO: 2 (protein)
chain: B1 chain with S71N, L88A, L92A, Y93L, I217A
modifications: Pseudomonas
B20: Q71NL92A: mutated TriA variant of SEQ ID NO: 2 (protein)
chain: B1 chain with S71N, L92A
modifications: Pseudomonas
B21: Q71NL92AY93FD128A: mutated TriA variant of SEQ ID NO: 2 (protein)
chain: B1 chain with S71N, L92A, Y93F, D128A
modifications: Pseudomonas
B22: Q71NL92AD128G: mutated TriA variant of SEQ ID NO: 2 (protein)
chain: B1 chain with S71N, L92A, D128G
modifications: Pseudomonas

Where a chain is given by its changes, count along the chain named. Numbers in names are those of the source.

The format of the data set is biochemical. Particulars: pH 7.2. The procedure:
EXAMPLE 3: Protein Purification. TriA and variants thereof were produced in E. coli BL21(DE3) Gold (Agilent Technologies, Germany). Therefore E. coli was transformed with appropriate pET24d N-HIS tag expression vector and chaperone plasmid pGro7 (chaperones groEL and groES). Bacterial strains were grown at 30° C. in 100 mL LB for 20 h and protein expression induced with 0.1 mM IPTG at 25° C. for 20 hs. Cells were harvested by centrifugation at 3000 rpm at 4° C. for 20 min, resuspended in Bug Buster protein extraction reagent (Novagen, Germany) according to manufactures instructions. Lysates were clarified by centrifugation. Samples of bovine serum albumin ([…]) were loaded onto each gel analyzed by densitometry to provide an internal standard. Protein determinations were verified using Coomassie protein assay dye, according to manufactures instruction (Thermo Scientific; USA). The HIS-tagged enzymes were purified by metal ion affinity chromatography using Ni-IDA 1000 kit (Macherey-Nagel, Germany) following manufactures instructions. Protein purity was accessed by SDS-PAGE using NuPAGE Novex 4-12% Bis-Tris pre-cast gels (Life Technologies; USA) stained with Coomassie Brilliant Blue (Serva, Germany). Protein concentrations were estimated by measuring absorbance at 280 nm using Lambda Bio+(Perkin Elmer, USA). EXAMPLE 4: Enzyme kinetics. Resting cell suspension containing triA gene were incubated with various azines, melamine and atrazine and the culture filtrate was analyzed by UPLC-HR-MS. Substrates were obtained either from Sigma-Aldrich or synthesized internally. Synthetic standards and enzyme reaction products were analysed by UPLC-HR-MS (Thermo/Dionex UPLC UltiMate3000 coupled to a QExactive high resolution mass spectrometer). A Waters Acquity HSS T3 column (2.1 mm; 100 mm; […]) was used with a mobile phase water/acetonitrile (0.1% formic acid) with a flow rate of […]. Enzymes were used solved 25 mM sodium phosphate buffer (pH 7.2) with substrate concentration in the range of 1 nM to 10 nM at 30° C. Over time, the original azine peak disappeared whereas the formed OH-Metabolite (reaction product) increased. The product was identified by determination of the exact formula and by analysis of the accurate MS-MS fragments. Moreover for some of the formed products authentic standards were co-eluted. Degradation in % was calculated against the cells harboring the empty vector as control.
On to B1, for which the “Degradation in % of 6-cyclopentyl-N4-(2,3,4,5,6-pentafluorophenyl)-1,3,5-triazine-2,4-diamine” value was found to be 0% and the “Degradation in % of Melamine” value is 43%.

For B2, the “Degradation in % of 6-cyclopentyl-N4-(2,3,4,5,6-pentafluorophenyl)-1,3,5-triazine-2,4-diamine” value is 31% and the “Degradation in % of Melamine” value was 0%.

For B3, the “Degradation in % of 6-cyclopentyl-N4-(2,3,4,5,6-pentafluorophenyl)-1,3,5-triazine-2,4-diamine” value came to 0% and the “Degradation in % of Melamine” value was determined as 10%.

Regarding B4, the “Degradation in % of 6-cyclopentyl-N4-(2,3,4,5,6-pentafluorophenyl)-1,3,5-triazine-2,4-diamine” value was found to be 98% and the “Degradation in % of Melamine” value stood at 44%.

With B5, the “Degradation in % of 6-cyclopentyl-N4-(2,3,4,5,6-pentafluorophenyl)-1,3,5-triazine-2,4-diamine” value is 4% and the “Degradation in % of Melamine” value stood at 0%.

For the molecule B6, the “Degradation in % of 6-cyclopentyl-N4-(2,3,4,5,6-pentafluorophenyl)-1,3,5-triazine-2,4-diamine” value is given as 64% and the “Degradation in % of Melamine” value worked out at 40%.

Take B7: the “Degradation in % of 6-cyclopentyl-N4-(2,3,4,5,6-pentafluorophenyl)-1,3,5-triazine-2,4-diamine” value amounted to 99% and the “Degradation in % of Melamine” value was determined as 4%.

Turning to B8, the “Degradation in % of 6-cyclopentyl-N4-(2,3,4,5,6-pentafluorophenyl)-1,3,5-triazine-2,4-diamine” value is given as 100% and the “Degradation in % of Melamine” value stood at 67%.

Regarding B9, the “Degradation in % of 6-cyclopentyl-N4-(2,3,4,5,6-pentafluorophenyl)-1,3,5-triazine-2,4-diamine” value worked out at 0% and the “Degradation in % of Melamine” value turned out to be 0%.

For the molecule B10, the “Degradation in % of 6-cyclopentyl-N4-(2,3,4,5,6-pentafluorophenyl)-1,3,5-triazine-2,4-diamine” value turned out to be 0% and the “Degradation in % of Melamine” value is listed as 19%.

B11: the “Degradation in % of 6-cyclopentyl-N4-(2,3,4,5,6-pentafluorophenyl)-1,3,5-triazine-2,4-diamine” value turned out to be 92% and the “Degradation in % of Melamine” value came out at 5%.

In the case of B12, the “Degradation in % of 6-cyclopentyl-N4-(2,3,4,5,6-pentafluorophenyl)-1,3,5-triazine-2,4-diamine” value worked out at 99% and the “Degradation in % of Melamine” value was determined as 1%.

Regarding B13, the “Degradation in % of 6-cyclopentyl-N4-(2,3,4,5,6-pentafluorophenyl)-1,3,5-triazine-2,4-diamine” value is 100% and the “Degradation in % of Melamine” value turned out to be 99%.

Regarding B14, the “Degradation in % of 6-cyclopentyl-N4-(2,3,4,5,6-pentafluorophenyl)-1,3,5-triazine-2,4-diamine” value came to 91% and the “Degradation in % of Melamine” value came out at 1%.

With B15, the “Degradation in % of 6-cyclopentyl-N4-(2,3,4,5,6-pentafluorophenyl)-1,3,5-triazine-2,4-diamine” value is reported as 100% and the “Degradation in % of Melamine” value is 78%.

On to B16, for which the “Degradation in % of 6-cyclopentyl-N4-(2,3,4,5,6-pentafluorophenyl)-1,3,5-triazine-2,4-diamine” value came out at 98% and the “Degradation in % of Melamine” value came to 0%.

In the case of B17, the “Degradation in % of 6-cyclopentyl-N4-(2,3,4,5,6-pentafluorophenyl)-1,3,5-triazine-2,4-diamine” value turned out to be 74% and the “Degradation in % of Melamine” value is 0%.

For B18, the “Degradation in % of 6-cyclopentyl-N4-(2,3,4,5,6-pentafluorophenyl)-1,3,5-triazine-2,4-diamine” value is 99% and the “Degradation in % of Melamine” value is given as 52%.

B19: the “Degradation in % of 6-cyclopentyl-N4-(2,3,4,5,6-pentafluorophenyl)-1,3,5-triazine-2,4-diamine” value came to 99% and the “Degradation in % of Melamine” value is on record as 12%.

With B20, the “Degradation in % of 6-cyclopentyl-N4-(2,3,4,5,6-pentafluorophenyl)-1,3,5-triazine-2,4-diamine” value is recorded as 99% and the “Degradation in % of Melamine” value turned out to be 87%.

For B21, the “Degradation in % of 6-cyclopentyl-N4-(2,3,4,5,6-pentafluorophenyl)-1,3,5-triazine-2,4-diamine” value was determined as 98% and the “Degradation in % of Melamine” value worked out at 0%.

With B22, the “Degradation in % of 6-cyclopentyl-N4-(2,3,4,5,6-pentafluorophenyl)-1,3,5-triazine-2,4-diamine” value was 61% and the “Degradation in % of Melamine” value is recorded as 0%.
